Data from PMC9758055.

Legend:
[1] = target: SNAPC1;SNAPC2;SNAPC3;SNAPC4 full length;SNAPC5;TBP;TFIIB (Homo sapiens;Homo sapiens;Homo …, UniProt Q16533;Q13487;Q92966;Q5SXM2;O75971;P20226;Q00403 …, ||||||); experiment: EMSA; SNAPc-FL with TBP and TFIIB; EMSA: 250 mM NaCl, 50 mM HEPES pH 7.9, 20% glycerol, 1 mM TCEP, room temperature 15 min; 20 pM SNAPc, 5 pM DNA, 25 pM TBP/TFIIB (units as printed). Cryo-EM: ass; details: protein: recombinant;recombinant;recombinant;recombinant;recombinant;recombinant;recombinant; tags: ;;;N-terminal StrepTwin, C-terminal His;;;; copies: 1;1;1;1;1;1;1; blunt
[2] = target: SNAPC1;SNAPC3;SNAPC4 1-516;SNAPC5 (Homo sapiens;Homo sapiens;Homo …, UniProt Q16533;Q92966;Q5SXM2;O75971 1-368;1-411;1-516;1-98, |||); experiment: EMSA; SNAPc-core alone; EMSA: 250 mM NaCl, 50 mM HEPES pH 7.9, 20% glycerol, 1 mM TCEP, room temperature 15 min; 20 pM SNAPc, 5 pM DNA, 25 pM TBP/TFIIB (units as printed). Cryo-EM: ass; details: protein: recombinant;recombinant;recombinant;recombinant; tags: ;;;; copies: 1;1;1;1; blunt
[3] = target: SNAPC1;SNAPC3;SNAPC4 1-516;SNAPC5;TBP;TFIIB (Homo sapiens;Homo sapiens;Homo …, UniProt Q16533;Q92966;Q5SXM2;O75971;P20226;Q00403 1-368;1-411;1-516;1-98;1-339;1-316, |||||); experiment: EMSA; SNAPc-core with TBP and TFIIB; EMSA: 250 mM NaCl, 50 mM HEPES pH 7.9, 20% glycerol, 1 mM TCEP, room temperature 15 min; 20 pM SNAPc, 5 pM DNA, 25 pM TBP/TFIIB (units as printed). Cryo-EM: ass; details: protein: recombinant;recombinant;recombinant;recombinant;recombinant;recombinant; tags: ;;;;;; copies: 1;1;1;1;1;1; blunt
[4] = target: SNAPC1;SNAPC2;SNAPC3;SNAPC4 full length;SNAPC5 (Homo sapiens;Homo sapiens;Homo …, UniProt Q16533;Q13487;Q92966;Q5SXM2;O75971 1-368;1-334;1-411;1-1469;1-98, ||||); experiment: EMSA; SNAPc-FL alone; EMSA: 250 mM NaCl, 50 mM HEPES pH 7.9, 20% glycerol, 1 mM TCEP, room temperature 15 min; 20 pM SNAPc, 5 pM DNA, 25 pM TBP/TFIIB (units as printed). Cryo-EM: ass; details: protein: recombinant;recombinant;recombinant;recombinant;recombinant; tags: ;;;N-terminal StrepTwin, C-terminal His;; copies: 1;1;1;1;1; blunt
[5] = target: SNAPC1;SNAPC3;SNAPC4 1-516;SNAPC5;TBP;TFIIB;TFIIA (Homo sapiens;Homo sapiens;Homo …, UniProt Q16533;Q92966;Q5SXM2;O75971;P20226;Q00403;P52655;P52657 …, ||||||); experiment: cryo-EM; local map of SNAPc-containing upstream complex; GraFix; EMSA: 250 mM NaCl, 50 mM HEPES pH 7.9, 20% glycerol, 1 mM TCEP, room temperature 15 min; 20 pM SNAPc, 5 pM DNA, 25 pM TBP/TFIIB (units as printed). Cryo-EM: ass; details: protein: recombinant;recombinant;recombinant;recombinant;recombinant;recombinant;recombinant; tags: ;;;;;;; copies: 1;1;1;1;1;1;1;1; blunt
[6] = target: SNAPC1;SNAPC3;SNAPC4 1-516;SNAPC5;TBP;TFIIB;TFIIA;TFIIF;RNA polymerase II (Homo sapiens;Homo sapiens;Homo …, UniProt Q16533;Q92966;Q5SXM2;O75971;P20226;Q00403;P52655;P52657;P35269;P13984;A0A8D1DPV6 …, ||||||||); experiment: cryo-EM; closed complex; GraFix; TFIIE added in assembly; Zn2+ in SNAPC3; EMSA: 250 mM NaCl, 50 mM HEPES pH 7.9, 20% glycerol, 1 mM TCEP, room temperature 15 min; 20 pM SNAPc, 5 pM DNA, 25 pM TBP/TFIIB (units as printed). Cryo-EM: ass; details: tags: ;;;;;;;;; copies: 1;1;1;1;1;1;1;1;1;1;1;1;1;1;1;1;1;1;1;1;1;1; blunt

Measured: binding result

B1: U5 promoter EMSA fragment (75 bp) (dsDNA)
DNA 1: ACCAGTTACTTCTGTAACTCAATTTTCGGGTAACTGCAATTCCTAGTACACTGATGGTGTCTACTAATCCCAAGG
DNA 2: CCTTGGGATTAGTAGACACCATCAGTGTACTAGGAATTGCAGTTACCCGAAAATTGAGTTACAGAAGTAACTGGT
binds: [1] | [2] | [3] | [4]

B2: U1 promoter EMSA fragment (76 bp) (dsDNA)
DNA 1: GAAACGTTGTGCCTCTGCCCCGACACAGCCTCATACGCCTCACTCTTTACACACACGGTCACTTGCCCCGCGCACT
DNA 2: AGTGCGCGGGGCAAGTGACCGTGTGTGTAAAGAGTGAGGCGTATGAGGCTGTGTCGGGGCAGAGGCACAACGTTTC
binds: [1] | [2] | [3] | [4]

B3: engineered U5 promoter cryo-EM scaffold (96 bp) (dsDNA)
DNA 1: AGTAGACACCATCAGTGTACTAGGACCCGAAAATTGAGTTACAGAAGTAACTGGTATACTCTGGTTTCTCTTCAGATCGCATAAAACCTGGCAGGG
DNA 2: CCCTGCCAGGTTTTATGCGATCTGAAGAGAAACCAGAGTATACCAGTTACTTCTGTAACTCAATTTTCGGGTCCTAGTACACTGATGGTGTCTACT
binds: [5] | [6]
